The target in the experiment is T1, human epithelial cell adhesion molecule (EpCAM) on CHO–EpCAM cells (Homo sapiens, UniProt P16422).
T1 construct: BC014785.1, expressed on the surface of CHO cells; source: CHO-X cells, lentiviral transduction, doxycycline-inducible, on the cell surface (clone SP1D12)
In words: flow cytometry on cells; self-labeling: CHO–EpCAM cells transduced with the HA-tagged scFv, cultured 3 days with or without doxycycline, stained with anti-HA-PE. As to conditions: partners not purified. In general terms: A flow cytometer gives signals particle by particle.

Bounds are passed on as bounds.

The record followed here is paper PMC7939478, “Development of a novel mammalian display system for selection of antibodies against membrane proteins” (The Journal of Biological Chemistry, 2020).

T1 sequence (P16422 24-314): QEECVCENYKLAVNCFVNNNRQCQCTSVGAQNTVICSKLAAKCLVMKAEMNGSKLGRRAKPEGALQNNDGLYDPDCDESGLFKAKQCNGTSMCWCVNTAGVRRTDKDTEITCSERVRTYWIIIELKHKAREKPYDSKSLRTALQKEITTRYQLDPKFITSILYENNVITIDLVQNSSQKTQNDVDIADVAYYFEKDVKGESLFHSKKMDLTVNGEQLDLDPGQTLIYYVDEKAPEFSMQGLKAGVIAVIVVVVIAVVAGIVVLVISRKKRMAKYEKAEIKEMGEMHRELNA

B1: known anti-EpCAM scFv with a C-terminal HA tag (scFv, V domains shown)
VH: VQLLEQSGAELVRPGTSVKISCKASGYAFTNYWLGWVKQRPGHGLEWIGDIFPGSGNIHYNEKFKGKATLTADKSSSTAYMQLSSLTFEDSAVYFCARLRNWDEPMDYWGQGTTVTVSS
VL: ELVMTQSPSSLTVTAGEKVTMSCKSSQSLLNSGNQKNYLTWYQQKPGQPPKLLIYWASTRESGVPDRFTGSGSGTDFTLTISSVQAEDLAVYYCQNDYSYPLTFGAGTKLEIK
notes: Cloned into the pSF lentivector used for the scFv library; also called control anti-EpCAM scFv; source: CHO–EpCAM cells, lentiviral transduction, secreted by the same cells that carry the target; not shown: HA, C-terminal, kept
On to B1, for which the “fold increase in self-labeling signal (with against without doxycycline)” value was greater than 100 fold.
